Experimental findings from patent publication US20240052027A1 (OBLIQUE THERAPEUTICS, published 2024) are described below.

Substitutions are numbered along the chain they refer to. Bridge positions count the residues as written; N and C are the ends. * marks the point of attachment. Propargyl = C#CC*

T1: OTV16 peptide (SEQ ID NO:3) (human, disulfide 1-18; SMILES …)
T1 construct: cyclic; Coated on ELISA plates
T1 peptide: Propargyl-CYRPVDGLPPFKMEKTGC-NH2

T2: NHP-OTV16 peptide (SEQ ID NO:5) (Macaca mulatta, disulfide 1-18)
T2 construct: cyclic
T2 peptide: Propargyl-CYRPVDGLPPFKMEKTEC-NH2

T3: rOTV16 peptide (SEQ ID NO:7) (rat, disulfide 1-18)
T3 construct: cyclic
T3 peptide: Propargyl-CYRPVEGLPPYKLKNTGC-NH2

T4: mOTV16 peptide (SEQ ID NO:9) (mouse, disulfide 1-19)
T4 construct: cyclic
T4 peptide: Propargyl-CYRPVEGLPPYKLNNTVGC-NH2

B1: 75C9-1 (antibody, V domains shown)
VH: QEQVVESGGGLVQPEGSLTLTCTASGFSFNNNAMCWVRQAPGKGLEWIGCIGTAASGNSYYASWAKGRFTISRTSSTTVTLQMTSLTAADTATYFCPRDINAYGNDGWSFKLWGPGTLVTVSS
VL: AFELTQTPSSVEAAVGGTVTIKCQASQSINGWLSWYQQKPGQPPKLLIYRASPVASGVPSRFKGSGSGTEYTLTISGVQCDDAATYYCQQGYTFNNVDDPFGGGTEVVVK
notes: Recombinant rabbit IgG with rabbit kappa light chain, made in HEK cells; Also tested as B-cell clone supernatant; also called monoclonal antibody 75C9-1
B2: 9E4-1 (antibody, V domains shown)
VH: QSLEESGGRLVTPGTPLTLTCTVSGIDLSSVTMGWVRQAPGKGLEYIGVIVPRGATYYANWVKGRFTISKTSTTVDLKMTSLTTEDTATYFCARDGDTGNIYGYYFDIWGPGTLVTVSL
VL: AYDMTQTPASVSEPVGGTVTIKCQASQSISTALAWYQQKSGQRPKLLIYDAWKLASGVSSRFKGSGSGTQFTLTISGVQCDDAATYYCQQGYSGNNVDNVFGGGTEVVVS
notes: Recombinant rabbit IgG with rabbit kappa light chain, made in HEK cells; Also tested as B-cell clone supernatant; also called monoclonal antibody 9E4-1
B3: 23B9-1 (antibody, V domains shown)
VH: QSVEESGGRPVTPGTPLTLTCTVSGIDLSRYAVDWVRQAPGKGLEWIGIILTSGKISYASWVKGRFTISKTSTTVDLKMTSLTTEDTATYFCARHFDLWGQGTLVTVSS
VL: QVLTQTASPVSAAVGGTVTINCQSSQSVYNNNNLAWYQQKPGQPPKLLIYDSSKLESGVPSRFKGSGSGTQFTLIISDLECDDAATYYCAGGYSGVIASFGGGTEVVVK
notes: Recombinant rabbit IgG with rabbit kappa light chain, made in HEK cells; Also tested as B-cell clone supernatant; also called monoclonal antibody 23B9-1
B4: 69H7-1 (antibody, V domains shown)
VH: QSLEESGGRLVTPGTPLTLTCTASGLSLSRYDMNWVRQAPGKGLEYIGFINTRGSTYYATWTTGRFTISRTSTTVDLTMTSPTTEDTATYFCARDIPDWDIGHVFDLWGPGTLVTVSS
VL: AYDMTQTPASVSGAVGGTVTINCQASQSISNELSWYQQKPGQRPRLLIYQASTLASGVPSRFKGSGYGTQFTLTISDLECADAATYYCQQGYTSNNIVNAFGGGTEVVVK
notes: Recombinant rabbit IgG with rabbit kappa light chain, made in HEK cells; Also tested as B-cell clone supernatant; also called monoclonal antibody 69H7-1
B5: 29B5-1 (antibody, V domains shown)
VH: B2 VH with V51T, P52T, R53I, G54R, A55T, N60S, K63N, K70Q, G99T, I101T
VL: AVVMTQTPASVEVAVGGTVTIKCQASQSISSYLAWYQQKPGQPPKLLIYKASTLASGVPSRFKGSGSGTQFTLTISGVQCDDAATYYCQQGYTGNNVDNIFGGGTEVVVK
notes: Recombinant rabbit IgG with rabbit kappa light chain, made in HEK cells; Also tested as B-cell clone supernatant; also called monoclonal antibody 29B5-1
B6: 4D11-1 (antibody, V domains shown)
VH: QEQVVESGGGLVQPEGSLTLTCTASGFDFSSNAMCWVRQAPGKGLAWIGCIGTGSSGSTYYASWARGRFTISKTSSTTVTLQMTSLTAADTATYFCPRDINAYGNDGWSFNLWGPGTLVTVSS
VL: AYDMTQTPASVEVAVGGTVTIKCQASQSIVGWLSWYQQKPGQPPKLLIYRASTLASGVPSRFKGSGSGTEFTLTISDLECDDAATYYCQQGYTFNNVDNPFGGGTEVLVK
notes: Recombinant rabbit IgG with rabbit kappa light chain, made in HEK cells; Also tested as B-cell clone supernatant; also called monoclonal antibody 4D11-1
B7: 24C6-1 (antibody, V domains shown)
VH: QSVEESGGRLVTPGTPLTLTCTVSGFSLSTYAMAWVRQAPGKGLEWIGIIGQSSKTYYAIWAKGRFTISRTSTTVDLKIPSPTTEDTATYFCARGSTYVLDMWGPGTLVTVSL
VL: AVVMTQTASPVSAAVGGTVTIKCQASQSISSYLAWYQQKPGQPPKLLIADASKLVSGVPSRFKGSGSGTEFTLTISDLECADAATYYCQNYYGSSDFGTFGGGTEVVVE
notes: Recombinant rabbit IgG with rabbit kappa light chain, made in HEK cells; Also tested as B-cell clone supernatant; also called monoclonal antibody 24C6-1
B8: 2B11-1 (antibody, V domains shown)
VH: QSVGESGGRLVTPGTPLTLTCTVSGIDLSIYPVDWVRQAPGKGLEWIGIINTNGNTYYANWAKGRFTISKTSSTTVDLQVTSLTTEDTATYFCARHFDLWGQGTLVTVSS
VL: B3 VL with S27T, P41S, K64S, I75T, S94G, V96W, S99A
notes: Recombinant rabbit IgG with rabbit kappa light chain, made in HEK cells; Also tested as B-cell clone supernatant; also called monoclonal antibody 2B11-1
B9: 54F1-1 (antibody, V domains shown)
VH: B8 VH with I30V, N51S, Q79K, V80M
VL: B3 VL with S27T, P41S, S53F, K64S, I75T, S94A, V96W, S99A
notes: Recombinant rabbit IgG with rabbit kappa light chain, made in HEK cells; Also tested as B-cell clone supernatant; also called monoclonal antibody 54F1-1
B10: 33B6-1 (antibody, V domains shown)
VH: B4 VH with R30S, T56A, T60S, T62A
VL: B4 VL with S12E, G13V, A14T, V15M, T18A, N22K, T53A
notes: Recombinant rabbit IgG with rabbit kappa light chain, made in HEK cells; Also tested as B-cell clone supernatant; also called monoclonal antibody 33B6-1
B11: 27A2-1 (antibody, V domains shown)
VH: QSLEEAGGRLVTPGGSLTLTCTASGLSLSSYDMNWVRQAPGKGLEFIGFINTRGTAYYASWAKGRFTISRTSTTVDLTMTSPTTEDTATYFCARDIPDWNIGHVFDLWGPGTLVTVSS
VL: B4 VL with S12E, G13V, A14T, V15M, T18A, S30T, S34A, T53A
notes: Recombinant rabbit IgG with rabbit kappa light chain, made in HEK cells; Also tested as B-cell clone supernatant; also called monoclonal antibody 27A2-1

The first assay deals with T1, OTV16 peptide (SEQ ID NO:3). The assay can be described thus: peptide ELISA of B-cell clone supernatant. On the procedure:
(§1) FIG. 5: Peptide ELISA of B-cell clone supernatants. Antibody in supernatant from B-cell clones was tested for binding to OTV16 peptide, NHP-OTV16 peptide and rOTV16 peptide respectively. B-cell supernatants were incubated for 1 hr in 96-well plates coated with the respective peptide. Plates were washed and bound antibody was detected using anti-rabbit IgG conjugated to horse radish peroxidase with absorbance measured at 450 nm. Serum from immunized rabbit was used as a positive binding control. B-cell culture medium (antibody-free) was used as a negative control. N=1.
(§2) 96-well plates suitable for ELISA were coated with respective peptide (1 μg/mL) in PBS and incubated 1 h at 37° C. or overnight at 4° C. The peptides used to coat the plates were OTV16 (SEQ ID NO:3), NHP-OTV16 (SEQ ID NO:5), and rOTV16 (SEQ ID NO:7) (described below). Plates were washed with wash buffer and incubated 1 h at 37° C. in the presence of blocking buffer (PBS, 0.5% BSA, 0.05% Tween 20, pH 7.4). B-cell supernatants were added and incubated for 1 h at 37° C. Plates were washed with wash buffer and Mouse Anti-Rabbit IgG Fc Antibody conjugated to horseradish peroxidase (Genscript, cat #A01856) was added and incubated for 30 minutes, 37° C. Plates were washed with wash buffer followed by addition of substrate solution, 100 μl/well and incubated for 13-20 minutes at RT. Reaction was stopped by adding 100 μl/well of stop solution. Absorbance was measured at 450 nm. Serum from immunized rabbit known to contain antibody that binds to OTV16 peptide was used as a positive control. B-cell culture medium (antibody-free) was used as a negative control.
B1: the binding result was “binds”.

Take B2: the binding result is “binds”.

Consider B3, for which the binding result is “binds”.

In the case of B4, the binding result is reported as “binds”.

The next assay addresses T2, NHP-OTV16 peptide (SEQ ID NO:5). In words: peptide ELISA of B-cell clone supernatant. On the procedure: as §1, §2
In the case of B1, the binding result was “binds”.

With B2, the binding result was “binds”.

Take B5: the binding result is given as “binds”.

For B6, the binding result is listed as “binds”.

As for B7, the binding result is reported as “binds”.

As for B3, the binding result is “binds”.

For the molecule B8, the binding result is recorded as “binds”.

Regarding B9, the binding result is recorded as “binds”.

In the case of B10, the binding result is given as “binds”.

Take B11: the binding result is “binds”.

For B4, the binding result is reported as “binds”.

In the next assay the target is T3, rOTV16 peptide (SEQ ID NO:7). The assay can be described thus: peptide ELISA of B-cell clone supernatant. On the procedure:
as §1, §2
For B8, the binding result is “binds”.

As to B9, the binding result is “binds”.

A further assay addresses T1, OTV16 peptide (SEQ ID NO:3). The assay can be described thus: peptide ELISA of purified recombinant monoclonal antibody. On the procedure: (§3) FIG. 6: Peptide ELISA of purified recombinant monoclonal antibodies. Monoclonal antibodies were tested for binding to OTV16 peptide, NHP-OTV16 peptide, mOTV16 peptide and rOTV16 peptide. Non-specific binding was determined using wells coated with bovine serum albumin (BSA). Serum from immunized rabbit (known to contain OTV16-binding antibody) was used as a positive binding control. Serial dilutions of antibody were incubated for 1 hr in ELISA plates coated with peptide or BSA. Plates were washed, and bound antibody was detected using anti-rabbit IgG conjugated to […] with absorbance measured at 405 nm.
(§4) 96-well plates suitable for ELISA were coated with peptide (1 μg/mL) in PBS and incubated 1 h at 37° C. The peptides used to coat the plates were OTV16 (SEQ ID NO:3; described above), NHP-OTV16 (SEQ ID NO:5; described above), rOTV16 (SEQ ID NO:7; described above) and mOTV16 (SEQ ID NO:9; described below). Plates were washed with PBS containing 0.05% Tween and incubated 1 h at 37° C. in the presence of blocking buffer (PBS, 0.5% BSA, 0.05% Tween 20, pH 7.4). A serial dilution of recombinant antibodies of the invention (23B9-1 or 24C6-1 or 27A2-1 or 29B5-1 or 2B₁₁-1 or 33B6-1 or 4D11-1 or 54F1-1 or 69H7-1 or 75C9-1 or 9E4-1) was added in blocking buffer and incubated for 1 h at RT. Plates were washed with PBS containing 0.05% Tween and a secondary antibody (anti-rabbit IgG conjugated to Alkaline Phosphatase (DAKO)), was added and incubated for 1 h at RT. Plates were washed with PBS containing 0.05% Tween followed by addition of 1 mg/mL pNPP (p-nitrophenyl […] phosphate) in pNPP buffer. Absorbance was measured at 405 nm. Serum from rabbit immunized with OTV16 peptide was used as a positive control. Non-specific binding, e.g. to plastic, was determined using wells coated with bovine serum albumin (BSA) protein.
Regarding B5, the binding result is “binds”.

On to B6, for which the binding result is “binds”.

For the molecule B7, the binding result was “binds”.

As to B8, the binding result was “binds”.

Turning to B9, the binding result is given as “binds”.

As to B10, the binding result is reported as “binds”.

B11: the binding result is listed as “binds”.

In the next assay the target is T4, mOTV16 peptide (SEQ ID NO:9). The description is as above. On the procedure: as §3, §4
On to B2, for which the binding result was “binds”.

Regarding B3, the binding result is “binds”.

On to B8, for which the binding result is listed as “binds”.

On to B9, for which the binding result was “binds”.
